Results taken from patent US20190375786A1, “STABLE PEPTIDES AND METHODS OF USE THEREOF” (Fred Hutchinson Cancer Research Center, priority 2016, published 2019).
Positions of bridges follow the written chain, without caps; N, C: chain ends. Residues, ends and D or L forms follow the SMILES beside them.

Key:
[1] = oral administration; cited from earlier work
[2] = Resistance to reduction by reduced glutathione (GSH), HPLC; type: physicochemical; conditions: 10 mM reduced glutathione (GSH); HPLC vs non-reduced peptide
Method: This example describes stability of designed or engineered peptides under reducing conditions. Peptides that are designed or engineered to interact with one or more target proteins in the cell, such as proteins in the nucleus, are exposed to reducing conditions in the cytosolic compartment of cells. Thus, it is advantageous for peptides of this disclosure to display stability in reducing conditions. Stability of peptides of this disclosure was tested in 10 mM DTT and 10 mM GSH. GSH is a more physiologically relevant reducing agent for testing peptide stability in intracellular conditions. An example of a peptide-target protein interaction is a peptide binding to a TEAD protein.

chymotrypsin = assay: SDPR surface display protease resistance, anti-6xHis staining, chymotrypsin; type: cell-based; conditions: HEK-293 cells, up to 40 μg/ml chymotrypsin for 20 minutes
Method: (§1) Soluble peptides were exposed to 500 U/mL porcine trypsin and analyzed by HPLC. Protease resistance was also assessed by using SDPR-displaying peptides. The SDPR vector is similar to the a surface display GFP FasL(SDGF) vector, but contains a C-terminal 6×His tag (SEQ ID NO: 180) and all basic or aromatic amino acid residues on the stalk removed. Protease resistance is then tested by incubation of cells displaying peptides with trypsin or chymotrypsin, followed by incubation in 10 mM DTT, and staining with an anti-6×His fluorophore-labeled antibody (“6×His” disclosed as SEQ ID NO: 180). If peptides are uncleaved, they retain the His tag and are stained with by the antibody. A control protease-sensitive knottin peptide (SK) was used as a positive control. Cells displaying peptides were treated with up to 40 μg/ml trypsin or chymotrypsin.
(§2) To determine the impact of protease treatment or reducing condition on the function of the peptides, i.e., binding activity, various binding or functional assays can be performed. […] After treatment with the protease and reducing agent, any linearized peptide product or degradation product resulting from reduction and/or proteolysis by treatment with a protease can be detected or analyzed by staining against the 6×His tag (SEQ ID NO: 180). […]

trypsin = trypsin (Sus scrofa, UniProt P00761); assay: SDPR surface display protease resistance, anti-6xHis staining, trypsin; type: cell-based; conditions: HEK-293 cells, up to 40 μg/ml trypsin for 20 minutes
Sequence of trypsin (P00761 9-231): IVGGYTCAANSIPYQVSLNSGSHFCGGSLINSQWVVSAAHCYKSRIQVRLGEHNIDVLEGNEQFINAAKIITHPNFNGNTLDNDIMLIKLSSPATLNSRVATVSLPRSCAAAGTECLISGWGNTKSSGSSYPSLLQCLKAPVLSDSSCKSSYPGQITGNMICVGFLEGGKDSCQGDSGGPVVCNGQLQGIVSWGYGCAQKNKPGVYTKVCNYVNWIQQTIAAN
Method: as §1, §2

Which “systemic absorption into the plasma” value [1] does the source give for `C[C@@H]1NC(=O)[C@@H]2CCCN2C(=O)[C@H](CC(N)=O)NC(=O)[C@@H]2CSSC[C@H](N)C(=O)N[C@H]3CSSC[C@H](NC1=O)C(=O)N[C@@H]([C@@H](C)O)C(=O)NCC(=O)N[C@H](C(=O)N[C@@H](Cc1ccc(O)cc1)C(=O)O)CSSC[C@H](NC(=O)[C@H](Cc1ccc(O)cc1)NC(=O)[C@H](CCC(=O)O)NC3=O)C(=O)N2` [linaclotide] (H-CCEYCCNPACTGCY-OH; disulfide 1-6, 2-10, 5-13) here?
Its value is “not significantly systemically absorbed”.

Which results are given for “PDEYIERAKECCKKQDIQCCLRIFDESKDPNVMLICLFCW [SEQ ID NO: 126]”?
resistance to GSH reducing conditions [2]: resistant; resistance of surface-displayed peptide to cleavage by chymotrypsin (chymotrypsin): partially resistant; resistance of surface-displayed peptide to cleavage by trypsin (trypsin): partially resistant
